Data on two molecules can be found in PMC4872093, “Structural insights into DNA sequence recognition by Type ISP restriction-modification enzymes”.

One data set has as its target T1, LlaGIΔN (UniProt Q93R01 1-1+166-1570, internal_change).
T1 sequence: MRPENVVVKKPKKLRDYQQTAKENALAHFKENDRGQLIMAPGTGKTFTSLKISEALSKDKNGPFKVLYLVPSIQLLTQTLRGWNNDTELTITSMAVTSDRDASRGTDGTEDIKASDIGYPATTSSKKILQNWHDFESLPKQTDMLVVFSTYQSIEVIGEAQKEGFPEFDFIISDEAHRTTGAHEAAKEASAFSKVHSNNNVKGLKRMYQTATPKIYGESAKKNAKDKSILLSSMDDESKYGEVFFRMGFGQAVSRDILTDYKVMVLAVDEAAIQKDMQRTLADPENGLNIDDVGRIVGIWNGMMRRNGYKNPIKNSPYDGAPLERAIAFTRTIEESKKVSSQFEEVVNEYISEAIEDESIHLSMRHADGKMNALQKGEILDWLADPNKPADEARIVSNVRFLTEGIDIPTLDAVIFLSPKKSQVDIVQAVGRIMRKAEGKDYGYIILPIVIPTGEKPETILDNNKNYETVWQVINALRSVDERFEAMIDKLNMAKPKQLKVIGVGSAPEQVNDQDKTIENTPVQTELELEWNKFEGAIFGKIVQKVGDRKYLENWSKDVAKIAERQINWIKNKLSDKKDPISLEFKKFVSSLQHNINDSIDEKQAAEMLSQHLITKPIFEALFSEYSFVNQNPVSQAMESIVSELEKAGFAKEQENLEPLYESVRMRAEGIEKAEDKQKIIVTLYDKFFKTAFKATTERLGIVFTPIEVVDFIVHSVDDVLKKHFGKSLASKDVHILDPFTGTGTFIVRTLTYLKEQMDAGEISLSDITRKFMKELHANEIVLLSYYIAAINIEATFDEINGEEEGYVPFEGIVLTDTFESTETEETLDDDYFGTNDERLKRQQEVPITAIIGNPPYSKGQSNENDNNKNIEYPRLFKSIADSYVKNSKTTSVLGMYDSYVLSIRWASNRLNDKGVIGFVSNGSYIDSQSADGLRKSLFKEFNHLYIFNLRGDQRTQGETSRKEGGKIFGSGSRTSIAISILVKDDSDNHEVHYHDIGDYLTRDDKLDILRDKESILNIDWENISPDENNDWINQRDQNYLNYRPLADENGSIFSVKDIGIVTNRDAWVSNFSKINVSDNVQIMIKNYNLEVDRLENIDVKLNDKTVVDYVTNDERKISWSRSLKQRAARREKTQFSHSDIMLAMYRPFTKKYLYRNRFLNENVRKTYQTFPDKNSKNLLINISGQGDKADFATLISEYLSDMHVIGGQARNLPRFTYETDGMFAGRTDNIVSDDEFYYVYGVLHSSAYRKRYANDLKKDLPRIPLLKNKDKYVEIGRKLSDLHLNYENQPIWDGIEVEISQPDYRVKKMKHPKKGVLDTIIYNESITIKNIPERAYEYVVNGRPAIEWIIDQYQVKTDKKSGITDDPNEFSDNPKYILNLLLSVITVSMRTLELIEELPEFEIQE
Description: X-ray crystallography, 2.84 A; no AdoMet; target adenine flipped; EMSA: 50 mM Tris-HCl pH 7.4, 100 mM NaCl, 10 mM MgCl2, 0.01 mg/ml BSA, 1 mM DTT, 10% glycerol, 4 C. Crystals at 291 K: LlaGIΔN 100 mM Tris-HCl pH 7.4, 20% PEG 20000, 4% PEG 550 MME, 150-250 mM Na acetate; LlaGI 100 mM MES pH 5.6, 300 mM KCl, 6.5% PEG 20000. As to conditions: protein: recombinant; 5' overhang 1 nt (T) on both strands, 22 bp paired. In general terms: Mobility shift assays separate free from complexed probe on a gel.

Data set [1] has as its target LlaGI full-length (crystal) (UniProt Q93R01 1-1570, D78A). As to the kind of experiment: X-ray crystallography, 7.4 A; EMSA: 50 mM Tris-HCl pH 7.4, 100 mM NaCl, 10 mM MgCl2, 0.01 mg/ml BSA, 1 mM DTT, 10% glycerol, 4 C. Crystals at 291 K: LlaGIΔN 100 mM Tris-HCl pH 7.4, 20% PEG 20000, 4% PEG 550 MME, 150-250 mM Na acetate; LlaGI 100 mM MES pH 5.6, 300 mM KCl, 6.5% PEG 20000. As to conditions: protein: recombinant; blunt.

B1: LlaGIΔN co-crystal duplex (22 bp) (dsDNA)
DNA 1: TTAGCTAATAGACTGGATGGAGG
DNA 2: TCCTCCATCCAGTCTATTAGCTA
As for B1, the binding result in the data set with LlaGIΔN was “binds”.

B2: LlaGI co-crystal duplex (28 bp) (dsDNA)
DNA 1: GCTCTAGCTAATAGACTGGATGGAGGTG
DNA 2: CACCTCCATCCAGTCTATTAGCTAGAGC
In the case of B2, the binding result in data set [1] is “binds”.
